Target: full-length RSV F A2 DS-Cav1 K201N (A-chimera construct) (respiratory syncytial virus subtype A, strain A2)

B1: 5C4 IgG (antibody, V domains shown)
VH: EVQLQQSGAELVKPGASVKLSCTASGFNIKDTFFHWVKQRPEQGLEWIGRIDPADGHTKYDPKFQGKATITADTSSNTAFLQLSSLTSVDTAVYYCATTITAVVPTPYNAMDYWGQGTSVTVSS
VL: DIVLTQSPASLAVSLGQRTTISCRASESVDSFDNSFIHWYQQKPGQPPKLLIFLASSLESGVPARFSGSGSRTDFTLTIDPVEADDAATYYCQQSNEDPFTFGSGTKLEIK
In the case of B1, the EC50 of 5C4 neutralisation of mKate-RSV A2 K201N-mutated virus on HEp-2 cells (viral F without DS-Cav1; antibody format not given) is reported as 0.41 µg/mL.
